1 substance from PMC9748336 can be followed below.

The assay concerns the target HA-tagged PP2A catalytic Cα subunit p.Cys196Arg variant (human) (UniProt P67775). As to the kind of experiment: co-IP; HA pull-down: lysates of HEK293T cells transfected with HA-Cα incubated 1 h at 4°C with anti-HA-agarose beads in NENT100 buffer with 1 mg/ml BSA; washes with 300 and 150 mM NaCl; endogenous A subunit detected by anti-A immunoblot, quantified against the anti-HA signal, WT set at 100%. Background: Immunoblotting shows a protein as a band on a membrane.

The substance “endogenous PP2A A subunit (from UniProt P30153 1-589) (natural protein)” gave a percent decrease of binding against Cα WT of 40%.
